From patent US20110105397A1, “METHOD FOR TREATING HEART FAILURE WITH STRESSCOPIN-LIKE PEPTIDES” (priority 2009, published 2011)
Where no end group is shown, it is not given here.

T1: human corticotrophin releasing hormone receptor type 2 (CRHR2) (human, UniProt Q13324 1-411)
T1 sequence (looked up): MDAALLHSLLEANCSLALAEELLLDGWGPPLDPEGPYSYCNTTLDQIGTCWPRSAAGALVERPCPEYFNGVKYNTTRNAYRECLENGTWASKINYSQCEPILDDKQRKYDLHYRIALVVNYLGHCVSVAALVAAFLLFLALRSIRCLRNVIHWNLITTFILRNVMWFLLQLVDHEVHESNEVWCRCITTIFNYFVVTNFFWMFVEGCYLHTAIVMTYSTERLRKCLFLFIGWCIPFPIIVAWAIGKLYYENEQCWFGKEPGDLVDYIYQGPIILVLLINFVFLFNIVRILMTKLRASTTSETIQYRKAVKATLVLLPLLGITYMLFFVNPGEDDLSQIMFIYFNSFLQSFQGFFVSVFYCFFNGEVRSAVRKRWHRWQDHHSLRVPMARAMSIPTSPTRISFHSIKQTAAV


Target: T1, human corticotrophin releasing hormone …
Assay: cell-based or functional assay

Binder	Log DR	pA50
TKFTLSLDVPTNIMNLLFNIAKAKNLRAQAAANAHLMCQI-NH2 [Cys-variant stresscopin-like peptide SEQ ID NO: 39]	0.41 log10	9.21 -log10(M)
TKFTLSLDVPTNIMNLLFNIAKAKNLRAQAAANAHLMAQC-NH2 [Cys-variant stresscopin-like peptide SEQ ID NO: 41]	2.07 log10	7.45 -log10(M)
TKFTLSLDVPTNIMNLLFNIAKAKNLRAQAAANAHCMAQI-NH2 [Cys-variant stresscopin-like peptide SEQ ID NO: 37]	1.05 log10	8.58 -log10(M)
TKFTLSLDVPTNIMNLLFNIAKACNLRAQAAANAHLMAQI-NH2 [Cys-variant stresscopin-like peptide SEQ ID NO: 25]	0.35 log10	9.17 -log10(M)
TKFTLSLDVPTNIMNLLFNCAKAKNLRAQAAANAHLMAQI-NH2 [Cys-variant stresscopin-like peptide SEQ ID NO: 21]	0.77 log10	8.75 -log10(M)
TKFTLSLDVPTNIMNLLFNIAKAKNLRAQAAANACLMAQI-NH2 [Cys-variant stresscopin-like peptide SEQ ID NO: 36]	0.42 log10	9.1 -log10(M)
TKFTLSLDVPTNIMNLLFNIAKAKNLRAQAAANAHLMACI-NH2 [Cys-variant stresscopin-like peptide SEQ ID NO: 40]	0.55 log10	9.08 -log10(M)
TKFTLSLDVPTNIMNLLFNICKAKNLRAQAAANAHLMAQI-NH2 [Cys-variant stresscopin-like peptide SEQ ID NO: 22]	0.52 log10	9.17 -log10(M)
TKFTLSLDVPTNIMNLLFNIAKAKNLRCQAAANAHLMAQI-NH2 [Cys-variant stresscopin-like peptide SEQ ID NO: 29]	0 log10	9.47 -log10(M)
TKFTLSLDVPTNIMNLLFNIAKAKNLRAQAAANAHLCAQI-NH2 [Cys-variant stresscopin-like peptide SEQ ID NO: 38]	> 2.95 log10	~6.67 -log10(M)
TKFTLSLDVPTNIMNLLCNIAKAKNLRAQAAANAHLMAQI-NH2 [Cys-variant stresscopin-like peptide SEQ ID NO: 19]	1.67 log10	8.01 -log10(M)
TKFTLSLDVPTNIMNLLFNIAKAKNLRACAAANAHLMAQI-NH2 [Cys-variant stresscopin-like peptide SEQ ID NO: 30]	1.28 log10	8.4 -log10(M)
TKFTLSLDVPTNIMNLLFNIAKAKNLRAQAAANCHLMAQI-NH2 [Cys-variant stresscopin-like peptide SEQ ID NO: 35]	0.7 log10	8.93 -log10(M)
TKFTLSLDVPTNIMNLLFNIAKCKNLRAQAAANAHLMAQI-NH2 [Cys-variant stresscopin-like peptide SEQ ID NO: 24]	0.74 log10	8.94 -log10(M)
TKFTLSLDVPTNIMNLLFCIAKAKNLRAQAAANAHLMAQI-NH2 [Cys-variant stresscopin-like peptide SEQ ID NO: 20]	0.52 log10	9 -log10(M)
TKFTLSLDVPTNIMNLLFNIACAKNLRAQAAANAHLMAQI-NH2 [Cys-variant stresscopin-like peptide SEQ ID NO: 23]	1.13 log10	8.55 -log10(M)
TKFTLSLDVPTNIMNLLFNIAKAKNLCAQAAANAHLMAQI-NH2 [Cys-variant stresscopin-like peptide SEQ ID NO: 28]	1.61 log10	9.36 -log10(M)
TKFTLSLDVPTNIMNLLFNIAKAKNCRAQAAANAHLMAQI-NH2 [Cys-variant stresscopin-like peptide SEQ ID NO: 27]	0.76 log10	8.76 -log10(M)
TKFTLSLDVPTNIMNLLFNIAKAKNLRAQAAACAHLMAQI-NH2 [Cys-variant stresscopin-like peptide SEQ ID NO: 34]	> 3.19 log10	~6.32 -log10(M)
TKFTLSLDVPTNIMNLCFNIAKAKNLRAQAAANAHLMAQI (NES-PEG (about 20 kDa) on Cys 17; C-terminal amide (-NH2)) [Pegylated Cys-variant stresscopin-like peptide with NES linker and PEG about 20 kDa SEQ ID NO: 71]	~2.26 log10	~7.35 -log10(M)
TKFTLSLDVPTNIMNLLFCIAKAKNLRAQAAANAHLMAQI (NES-PEG (about 20 kDa) on Cys 19; C-terminal amide (-NH2)) [Pegylated Cys-variant stresscopin-like peptide with NES linker and PEG about 20 kDa SEQ ID NO: 73]	1.11 log10	8.29 -log10(M)
TKFTLSLDVPTNIMNLLFNIAKAKNLRAQAAANAHLMAQC (NES-PEG (about 20 kDa) on Cys 40; C-terminal amide (-NH2)) [Pegylated Cys-variant stresscopin-like peptide with NES linker and PEG about 20 kDa SEQ ID NO: 94]	> 2.39 log10	~7 -log10(M)
TKFTLSLDVPTNIMNLLFNIAKAKNLRAQAAANCHLMAQI (NES-PEG (about 20 kDa) on Cys 34; C-terminal amide (-NH2)) [Pegylated Cys-variant stresscopin-like peptide with NES linker and PEG about 20 kDa SEQ ID NO: 88]	1.55 log10	8.12 -log10(M)
TKFTLSLDVPTNIMNLLFNIAKAKNLRAQACANAHLMAQI (NES-PEG (about 20 kDa) on Cys 31; C-terminal amide (-NH2)) [Pegylated Cys-variant stresscopin-like peptide with NES linker and PEG about 20 kDa SEQ ID NO: 85]	0.89 log10	8.51 -log10(M)

Binder	Log DR	pA50
TKFTLSLDVPTNIMNLLFNIAKAKNLRAQAAANAHCMAQI (NES-PEG (about 20 kDa) on Cys 36; C-terminal amide (-NH2)) [Pegylated Cys-variant stresscopin-like peptide with NES linker and PEG about 20 kDa SEQ ID NO: 90]	~2.17 log10	~7.49 -log10(M)
TKFTLSLDVPTNIMNLLFNIAKAKNLRAQAAACAHLMAQI (NES-PEG (about 20 kDa) on Cys 33; C-terminal amide (-NH2)) [Pegylated Cys-variant stresscopin-like peptide with NES linker and PEG about 20 kDa SEQ ID NO: 87]	> 3.68 log10	~6 -log10(M)
TKFTLSLDVPTNIMNLLFNIAKAKNLRAQAAANACLMAQI (NES-PEG (about 20 kDa) on Cys 35; C-terminal amide (-NH2)) [Pegylated Cys-variant stresscopin-like peptide with NES linker and PEG about 20 kDa SEQ ID NO: 89]	0.98 log10	8.48 -log10(M)
TKFTLSLDVPTNIMNLLCNIAKAKNLRAQAAANAHLMAQI (NES-PEG (about 20 kDa) on Cys 18; C-terminal amide (-NH2)) [Pegylated Cys-variant stresscopin-like peptide with NES linker and PEG about 20 kDa SEQ ID NO: 72]	1.5 log10	8.04 -log10(M)
TKFTLSLDVPTNIMNLLFNIAKAKNLRAQAAANAHLMACI (NES-PEG (about 20 kDa) on Cys 39; C-terminal amide (-NH2)) [Pegylated Cys-variant stresscopin-like peptide with NES linker and PEG about 20 kDa SEQ ID NO: 93]	1.47 log10	8.2 -log10(M)
TKFTLSLDVPTNIMNLLFNIAKAKCLRAQAAANAHLMAQI (NES-PEG (about 20 kDa) on Cys 25; C-terminal amide (-NH2)) [Pegylated Cys-variant stresscopin-like peptide with NES linker and PEG about 20 kDa SEQ ID NO: 79]	1.11 log10	8.5 -log10(M)
TKFTLSLDVPTNIMNLLFNIAKCKNLRAQAAANAHLMAQI (NES-PEG (about 20 kDa) on Cys 23; C-terminal amide (-NH2)) [Pegylated Cys-variant stresscopin-like peptide with NES linker and PEG about 20 kDa SEQ ID NO: 77]	1.27 log10	8.27 -log10(M)
TKFTLSLDVPTNIMNLLFNIAKACNLRAQAAANAHLMAQI (NES-PEG (about 20 kDa) on Cys 24; C-terminal amide (-NH2)) [Pegylated Cys-variant stresscopin-like peptide with NES linker and PEG about 20 kDa SEQ ID NO: 78]	~1.52 log10	~7.89 -log10(M)
TKFTLSLDVPTNIMNLLFNIAKAKNLRAQAACNAHLMAQI (NES-PEG (about 20 kDa) on Cys 32; C-terminal amide (-NH2)) [Pegylated Cys-variant stresscopin-like peptide with NES linker and PEG about 20 kDa SEQ ID NO: 86]	0.82 log10	8.79 -log10(M)
TKFTLSLDVPTNIMNLLFNIAKAKNLCAQAAANAHLMAQI (NES-PEG (about 20 kDa) on Cys 27; C-terminal amide (-NH2)) [Pegylated Cys-variant stresscopin-like peptide with NES linker and PEG about 20 kDa SEQ ID NO: 81]	1.82 log10	7.83 -log10(M)
TKFTLSLDVPTNIMNLLFNICKAKNLRAQAAANAHLMAQI (NES-PEG (about 20 kDa) on Cys 21; C-terminal amide (-NH2)) [Pegylated Cys-variant stresscopin-like peptide with NES linker and PEG about 20 kDa SEQ ID NO: 75]	1.3 log10	8.24 -log10(M)
TKFTLSLDVPTNIMNLLFNIAKAKNLRAQCAANAHLMAQI (NES-PEG (about 20 kDa) on Cys 30; C-terminal amide (-NH2)) [Pegylated Cys-variant stresscopin-like peptide with NES linker and PEG about 20 kDa SEQ ID NO: 84]	~2.84 log10	~6.82 -log10(M)
TKFTLSLDVPTNIMNLLFNIAKAKNLRACAAANAHLMAQI (NES-PEG (about 20 kDa) on Cys 29; C-terminal amide (-NH2)) [Pegylated Cys-variant stresscopin-like peptide with NES linker and PEG about 20 kDa SEQ ID NO: 83]	1.63 log10	7.91 -log10(M)
TKFTLSLDVPTNIMNLLFNCAKAKNLRAQAAANAHLMAQI (NES-PEG (about 20 kDa) on Cys 20; C-terminal amide (-NH2)) [Pegylated Cys-variant stresscopin-like peptide with NES linker and PEG about 20 kDa SEQ ID NO: 74]	~2.28 log10	~7.33 -log10(M)
TKFTLSLDVPTNIMNLLFNIAKAKNLRAQAAANAHLMCQI (NES-PEG (about 20 kDa) on Cys 38; C-terminal amide (-NH2)) [Pegylated Cys-variant stresscopin-like peptide with NES linker and PEG about 20 kDa SEQ ID NO: 92]	1.55 log10	8.12 -log10(M)
TKFTLSLDVPTNIMNLLFNIAKAKNLRAQAAANAHLCAQI (NES-PEG (about 20 kDa) on Cys 37; C-terminal amide (-NH2)) [Pegylated Cys-variant stresscopin-like peptide with NES linker and PEG about 20 kDa SEQ ID NO: 91]	> 3.43 log10	~6.23 -log10(M)
TKFTLSLDVPTNIMNLLFNIAKAKNLRCQAAANAHLMAQI (NES-PEG (about 20 kDa; MW20000) on Cys 28; C-terminal amide (-NH2)) [Pegylated Cys-variant stresscopin-like peptide with NES linker and PEG about 20 kDa SEQ ID NO: 82]	1.12 log10	8.4 -log10(M)
TKFTLSLDVPTNIMNLLFNIAKAKNCRAQAAANAHLMAQI (NES-PEG (about 20 kDa) on Cys 26; C-terminal amide (-NH2)) [Pegylated Cys-variant stresscopin-like peptide with NES linker and PEG about 20 kDa SEQ ID NO: 80]	1.75 log10	7.6 -log10(M)
TKFTLSLDVPTNIMNLLFNIACAKNLRAQAAANAHLMAQI (NES-PEG (about 20 kDa) on Cys 22; C-terminal amide (-NH2)) [Pegylated Cys-variant stresscopin-like peptide with NES linker and PEG about 20 kDa SEQ ID NO: 76]	2.7 log10	6.84 -log10(M)
TKFTLSLDVPTNIMNLLFNIAKAKNLRAQCAANAHLMAQI-NH2 [Cys-variant stresscopin-like peptide SEQ ID NO: 31]	1.61 log10	8.02 -log10(M)
TKFTLSLDVPTNIMNLLFNIAKAKNLRAQACANAHLMAQI-NH2 [Cys-variant stresscopin-like peptide SEQ ID NO: 32]	0.11 log10	9.41 -log10(M)
TKFTLSLDVPTNIMNLLFNIAKAKNLRAQAACNAHLMAQI-NH2 [Cys-variant stresscopin-like peptide SEQ ID NO: 33]	0.45 log10	9.07 -log10(M)
TKFTLSLDVPTNIMNLLFNIAKAKCLRAQAAANAHLMAQI-NH2 [Cys-variant stresscopin-like peptide SEQ ID NO: 26]	0.08 log10	9.44 -log10(M)
